Results on 6 molecules are retold here after patent US20200369765A1 (INNATE PHARMA, published 2020).

Numbering of substitutions follows the chain as printed.

One assay has as its target T1, Human Siglec-9 mutant M8 (human, UniProt Q9Y336 18-463).
T1 construct: Expressed on HEK293T cells; also called Mutant 8
Nature of the assay: flow cytometry, HEK293T transfectants. On the technique in general: A flow cytometer gives signals particle by particle.

In the next assay the target is T2, Human Siglec-9 mutant M6 (human, UniProt Q9Y336 18-463).
T2 construct: Expressed on HEK293T cells; also called Mutant 6
Nature of the assay: flow cytometry, HEK293T transfectants.

Assay [1] deals with T3, Human Siglec-9 mutant M15 (human, UniProt Q9Y336 18-463).
T3 construct: Expressed on HEK293T cells; also called Mutant 15
Kind of assay: flow cytometry, HEK293T transfectants.

A further assay addresses T4, Human Siglec-9 mutant M2 (human, UniProt Q9Y336 18-463).
T4 construct: Expressed on HEK293T cells; also called Mutant 2
Nature of the assay: flow cytometry, HEK293T transfectants.

The next assay addresses T5, Human Siglec-9 mutant M7 (human, UniProt Q9Y336 18-463).
T5 construct: Expressed on HEK293T cells; also called Mutant 7
Nature of the assay: flow cytometry, HEK293T transfectants.

The next assay has as its target T6, Human Siglec-6 (human, UniProt O43699 27-453).
T6 construct: Expressed on transfected CHO cells; also called HuSiglec-6
Kind of assay: flow cytometry, CHO transfectants.

For another assay, the target named is T7, Human Siglec-8 (human, UniProt Q9NYZ4 17-499).
T7 construct: Expressed on transfected CHO cells; also called HuSiglec-8
Kind of assay: flow cytometry, CHO transfectants.

The target in the next assay is T8, Human Siglec-3 (human, UniProt P20138 18-364).
T8 construct: Expressed on transfected CHO cells; also called HuSiglec-3; CD33
Nature of the assay: flow cytometry, CHO transfectants.

The next assay has as its target T9, Human Siglec-5 (human, UniProt O15389 17-551).
T9 construct: Expressed on transfected CHO cells; also called HuSiglec-5
T9 sequence: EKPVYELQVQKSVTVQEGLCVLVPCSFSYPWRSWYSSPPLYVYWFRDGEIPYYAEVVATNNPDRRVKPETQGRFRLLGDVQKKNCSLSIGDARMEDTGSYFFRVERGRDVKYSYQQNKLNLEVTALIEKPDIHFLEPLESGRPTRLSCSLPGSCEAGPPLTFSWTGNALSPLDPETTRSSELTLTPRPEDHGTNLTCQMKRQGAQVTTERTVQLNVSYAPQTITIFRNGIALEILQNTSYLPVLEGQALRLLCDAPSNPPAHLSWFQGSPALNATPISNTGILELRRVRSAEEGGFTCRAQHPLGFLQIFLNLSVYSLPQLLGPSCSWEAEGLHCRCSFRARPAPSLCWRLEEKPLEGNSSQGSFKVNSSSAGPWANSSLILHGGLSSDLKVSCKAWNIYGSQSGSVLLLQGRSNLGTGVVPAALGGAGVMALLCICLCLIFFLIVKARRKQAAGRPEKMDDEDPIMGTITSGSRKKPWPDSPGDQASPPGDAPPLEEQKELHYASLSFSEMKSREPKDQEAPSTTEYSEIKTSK
Kind of assay: flow cytometry, CHO transfectants.

In a further assay the target is T10, Human Siglec-10 (human, UniProt Q96LC7 17-697).
T10 construct: Expressed on transfected CHO cells; also called HuSiglec-10
T10 sequence: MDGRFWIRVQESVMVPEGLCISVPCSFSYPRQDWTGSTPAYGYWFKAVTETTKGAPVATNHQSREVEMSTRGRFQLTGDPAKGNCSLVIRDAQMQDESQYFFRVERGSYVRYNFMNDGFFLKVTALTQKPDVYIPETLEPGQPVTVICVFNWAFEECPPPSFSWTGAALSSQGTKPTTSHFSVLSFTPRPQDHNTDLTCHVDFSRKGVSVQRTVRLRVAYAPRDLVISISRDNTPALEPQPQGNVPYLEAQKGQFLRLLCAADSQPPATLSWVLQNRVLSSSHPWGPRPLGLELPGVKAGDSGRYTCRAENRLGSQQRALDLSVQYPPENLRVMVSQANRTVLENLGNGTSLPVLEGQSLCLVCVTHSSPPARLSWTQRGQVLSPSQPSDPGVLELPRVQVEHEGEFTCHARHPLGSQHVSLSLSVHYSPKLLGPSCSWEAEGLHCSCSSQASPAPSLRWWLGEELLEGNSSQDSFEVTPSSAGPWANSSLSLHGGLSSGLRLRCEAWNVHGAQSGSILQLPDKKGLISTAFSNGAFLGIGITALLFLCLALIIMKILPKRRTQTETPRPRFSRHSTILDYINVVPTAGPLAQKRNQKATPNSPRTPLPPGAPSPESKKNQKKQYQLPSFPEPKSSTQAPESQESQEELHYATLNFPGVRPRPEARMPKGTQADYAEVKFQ
Kind of assay: flow cytometry, CHO transfectants.

The target of another assay is T11, Human Siglec-11 (human, UniProt Q96RL6 29-698).
T11 construct: Expressed on transfected CHO cells; also called HuSiglec-11
T11 sequence: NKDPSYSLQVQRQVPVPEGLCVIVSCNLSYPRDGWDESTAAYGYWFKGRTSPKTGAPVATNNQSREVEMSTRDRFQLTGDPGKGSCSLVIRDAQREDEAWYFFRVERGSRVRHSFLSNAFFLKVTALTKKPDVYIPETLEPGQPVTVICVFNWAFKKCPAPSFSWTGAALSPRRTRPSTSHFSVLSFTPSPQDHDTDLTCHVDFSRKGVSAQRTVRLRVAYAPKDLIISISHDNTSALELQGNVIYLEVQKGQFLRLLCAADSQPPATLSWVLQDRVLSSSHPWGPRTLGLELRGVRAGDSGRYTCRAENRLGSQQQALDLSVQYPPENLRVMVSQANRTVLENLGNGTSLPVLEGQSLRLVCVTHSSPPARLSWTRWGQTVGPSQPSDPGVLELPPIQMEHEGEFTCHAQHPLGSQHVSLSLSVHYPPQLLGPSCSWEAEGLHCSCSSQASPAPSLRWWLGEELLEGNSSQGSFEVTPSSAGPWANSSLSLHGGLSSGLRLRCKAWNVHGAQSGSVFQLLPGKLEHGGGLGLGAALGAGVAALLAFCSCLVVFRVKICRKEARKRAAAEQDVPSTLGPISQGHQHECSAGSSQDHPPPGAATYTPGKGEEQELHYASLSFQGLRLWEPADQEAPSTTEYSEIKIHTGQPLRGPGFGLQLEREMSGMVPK
Kind of assay: flow cytometry, CHO transfectants.

Another assay addresses T12, Human Siglec-12 (human, UniProt Q96PQ1 19-595).
T12 construct: Expressed on transfected CHO cells; also called HuSiglec-12
Kind of assay: flow cytometry, CHO transfectants.

Assay [2] addresses T13, Human Siglec-9 mutant M14 (human, UniProt Q9Y336 18-463).
T13 construct: Expressed on HEK293T cells; also called Mutant 14
Kind of assay: flow cytometry, HEK293T transfectants.

T7 sequence (Q9NYZ4 17-499): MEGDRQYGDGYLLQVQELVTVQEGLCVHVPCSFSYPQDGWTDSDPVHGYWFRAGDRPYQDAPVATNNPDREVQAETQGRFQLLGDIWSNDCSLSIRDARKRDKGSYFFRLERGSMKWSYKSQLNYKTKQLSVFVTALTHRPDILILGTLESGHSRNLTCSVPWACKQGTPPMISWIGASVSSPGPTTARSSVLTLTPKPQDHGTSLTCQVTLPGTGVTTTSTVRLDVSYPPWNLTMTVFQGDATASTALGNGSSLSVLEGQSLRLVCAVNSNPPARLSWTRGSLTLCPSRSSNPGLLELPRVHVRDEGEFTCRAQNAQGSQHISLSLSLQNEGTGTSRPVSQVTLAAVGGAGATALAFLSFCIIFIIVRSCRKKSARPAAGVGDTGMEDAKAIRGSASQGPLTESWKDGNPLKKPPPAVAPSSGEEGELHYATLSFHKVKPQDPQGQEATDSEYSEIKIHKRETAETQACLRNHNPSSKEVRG
T3 sequence (Q9Y336 other isoform, or with tags, fused parts or gaps mutant): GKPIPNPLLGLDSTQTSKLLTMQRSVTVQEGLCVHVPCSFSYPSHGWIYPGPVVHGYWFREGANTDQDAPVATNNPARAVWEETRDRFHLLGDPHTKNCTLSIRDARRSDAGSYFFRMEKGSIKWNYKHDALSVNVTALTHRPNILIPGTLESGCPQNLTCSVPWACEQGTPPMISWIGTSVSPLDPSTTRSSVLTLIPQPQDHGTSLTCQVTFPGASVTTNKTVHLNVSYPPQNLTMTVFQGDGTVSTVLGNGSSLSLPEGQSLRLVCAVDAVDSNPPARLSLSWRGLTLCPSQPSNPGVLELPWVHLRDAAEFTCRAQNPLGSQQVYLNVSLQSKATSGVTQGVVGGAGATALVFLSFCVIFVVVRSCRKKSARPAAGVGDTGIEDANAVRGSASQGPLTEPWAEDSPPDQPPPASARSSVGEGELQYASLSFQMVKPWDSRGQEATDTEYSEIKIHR
T12 sequence (Q96PQ1 19-595): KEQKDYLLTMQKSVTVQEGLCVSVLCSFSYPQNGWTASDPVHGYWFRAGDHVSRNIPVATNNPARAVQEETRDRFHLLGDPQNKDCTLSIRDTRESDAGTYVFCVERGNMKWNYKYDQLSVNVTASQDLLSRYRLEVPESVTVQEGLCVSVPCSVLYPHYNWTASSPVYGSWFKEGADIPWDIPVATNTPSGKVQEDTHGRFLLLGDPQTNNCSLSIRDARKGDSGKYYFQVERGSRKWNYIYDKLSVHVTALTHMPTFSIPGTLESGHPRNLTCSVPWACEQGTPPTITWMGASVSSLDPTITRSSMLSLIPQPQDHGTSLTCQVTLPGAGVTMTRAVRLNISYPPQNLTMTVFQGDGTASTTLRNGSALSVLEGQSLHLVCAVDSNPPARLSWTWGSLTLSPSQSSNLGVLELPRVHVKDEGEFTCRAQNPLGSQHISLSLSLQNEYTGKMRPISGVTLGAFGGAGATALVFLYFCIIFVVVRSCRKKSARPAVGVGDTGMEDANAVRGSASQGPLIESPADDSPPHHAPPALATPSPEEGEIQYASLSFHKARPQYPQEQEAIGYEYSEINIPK
T4 sequence (Q9Y336 other isoform, or with tags, fused parts or gaps mutant): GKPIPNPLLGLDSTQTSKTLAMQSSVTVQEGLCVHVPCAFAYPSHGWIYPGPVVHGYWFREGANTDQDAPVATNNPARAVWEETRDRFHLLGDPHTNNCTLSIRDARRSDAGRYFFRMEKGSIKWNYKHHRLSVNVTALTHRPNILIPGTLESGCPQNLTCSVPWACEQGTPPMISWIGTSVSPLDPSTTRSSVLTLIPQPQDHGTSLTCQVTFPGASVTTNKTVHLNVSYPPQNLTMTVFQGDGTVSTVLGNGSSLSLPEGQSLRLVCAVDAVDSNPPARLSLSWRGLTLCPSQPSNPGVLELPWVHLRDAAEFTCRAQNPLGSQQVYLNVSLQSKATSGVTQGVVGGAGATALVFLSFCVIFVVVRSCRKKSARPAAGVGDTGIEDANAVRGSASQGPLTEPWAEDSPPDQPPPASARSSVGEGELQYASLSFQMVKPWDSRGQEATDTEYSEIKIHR
T5 sequence (Q9Y336 other isoform, or with tags, fused parts or gaps mutant): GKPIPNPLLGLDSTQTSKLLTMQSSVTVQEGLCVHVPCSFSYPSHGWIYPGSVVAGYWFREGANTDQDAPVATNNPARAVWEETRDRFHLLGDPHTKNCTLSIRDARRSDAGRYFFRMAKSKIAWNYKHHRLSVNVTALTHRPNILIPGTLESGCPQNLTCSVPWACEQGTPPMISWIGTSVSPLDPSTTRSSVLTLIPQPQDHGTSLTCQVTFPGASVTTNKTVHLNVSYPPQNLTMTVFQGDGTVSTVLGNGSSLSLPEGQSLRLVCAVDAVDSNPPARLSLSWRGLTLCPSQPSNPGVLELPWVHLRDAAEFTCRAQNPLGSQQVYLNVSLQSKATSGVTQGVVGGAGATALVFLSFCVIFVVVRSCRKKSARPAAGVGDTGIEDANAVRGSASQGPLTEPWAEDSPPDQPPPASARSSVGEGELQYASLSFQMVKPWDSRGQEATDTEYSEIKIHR
T2 sequence (Q9Y336 other isoform, or with tags, fused parts or gaps mutant): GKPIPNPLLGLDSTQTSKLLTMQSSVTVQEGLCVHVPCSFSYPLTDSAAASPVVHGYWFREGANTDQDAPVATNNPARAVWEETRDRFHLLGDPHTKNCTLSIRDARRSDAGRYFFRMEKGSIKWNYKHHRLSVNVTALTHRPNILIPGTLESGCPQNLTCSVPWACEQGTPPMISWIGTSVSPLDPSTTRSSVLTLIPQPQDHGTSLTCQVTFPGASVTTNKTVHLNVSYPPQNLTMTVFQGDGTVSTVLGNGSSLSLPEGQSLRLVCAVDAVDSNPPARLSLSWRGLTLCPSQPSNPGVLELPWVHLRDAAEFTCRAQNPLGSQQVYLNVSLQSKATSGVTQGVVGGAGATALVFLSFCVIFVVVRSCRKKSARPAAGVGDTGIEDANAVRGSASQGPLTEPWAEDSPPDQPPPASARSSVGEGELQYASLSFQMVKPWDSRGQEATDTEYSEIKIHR
T8 sequence (P20138 18-364 R69G): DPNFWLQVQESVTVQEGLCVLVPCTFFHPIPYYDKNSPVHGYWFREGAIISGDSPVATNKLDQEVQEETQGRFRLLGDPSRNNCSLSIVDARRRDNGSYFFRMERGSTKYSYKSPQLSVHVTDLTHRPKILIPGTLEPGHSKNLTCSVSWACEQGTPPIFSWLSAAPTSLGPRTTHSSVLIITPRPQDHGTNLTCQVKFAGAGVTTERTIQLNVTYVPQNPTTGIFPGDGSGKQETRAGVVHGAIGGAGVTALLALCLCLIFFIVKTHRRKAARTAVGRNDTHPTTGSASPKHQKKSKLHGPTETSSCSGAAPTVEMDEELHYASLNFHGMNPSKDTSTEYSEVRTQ
T6 sequence (O43699 other isoform, or with tags, fused parts or gaps): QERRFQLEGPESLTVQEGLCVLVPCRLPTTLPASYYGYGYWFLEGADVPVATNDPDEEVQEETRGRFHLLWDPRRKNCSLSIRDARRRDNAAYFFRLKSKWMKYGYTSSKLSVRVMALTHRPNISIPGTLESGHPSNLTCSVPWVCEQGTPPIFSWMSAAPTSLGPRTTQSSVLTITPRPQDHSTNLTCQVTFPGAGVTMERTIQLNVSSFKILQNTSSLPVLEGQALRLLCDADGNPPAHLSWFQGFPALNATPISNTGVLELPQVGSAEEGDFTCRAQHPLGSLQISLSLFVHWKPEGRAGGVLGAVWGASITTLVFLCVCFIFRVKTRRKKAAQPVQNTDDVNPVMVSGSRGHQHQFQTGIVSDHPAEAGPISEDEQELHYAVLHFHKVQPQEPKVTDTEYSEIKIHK
T1 sequence (Q9Y336 other isoform, or with tags, fused parts or gaps mutant): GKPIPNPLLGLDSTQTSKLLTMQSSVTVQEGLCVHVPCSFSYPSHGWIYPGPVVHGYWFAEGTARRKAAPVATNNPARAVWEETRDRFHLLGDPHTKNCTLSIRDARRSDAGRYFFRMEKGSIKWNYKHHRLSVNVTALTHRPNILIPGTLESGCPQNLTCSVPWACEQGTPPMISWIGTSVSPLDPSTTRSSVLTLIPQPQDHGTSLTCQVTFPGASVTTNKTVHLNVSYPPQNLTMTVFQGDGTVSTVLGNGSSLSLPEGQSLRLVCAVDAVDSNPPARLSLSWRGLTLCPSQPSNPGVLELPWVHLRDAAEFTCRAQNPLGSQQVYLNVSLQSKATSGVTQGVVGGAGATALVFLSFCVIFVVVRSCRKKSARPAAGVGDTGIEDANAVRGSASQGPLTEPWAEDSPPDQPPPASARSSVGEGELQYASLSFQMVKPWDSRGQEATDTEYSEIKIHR
T13 sequence (Q9Y336 other isoform, or with tags, fused parts or gaps mutant): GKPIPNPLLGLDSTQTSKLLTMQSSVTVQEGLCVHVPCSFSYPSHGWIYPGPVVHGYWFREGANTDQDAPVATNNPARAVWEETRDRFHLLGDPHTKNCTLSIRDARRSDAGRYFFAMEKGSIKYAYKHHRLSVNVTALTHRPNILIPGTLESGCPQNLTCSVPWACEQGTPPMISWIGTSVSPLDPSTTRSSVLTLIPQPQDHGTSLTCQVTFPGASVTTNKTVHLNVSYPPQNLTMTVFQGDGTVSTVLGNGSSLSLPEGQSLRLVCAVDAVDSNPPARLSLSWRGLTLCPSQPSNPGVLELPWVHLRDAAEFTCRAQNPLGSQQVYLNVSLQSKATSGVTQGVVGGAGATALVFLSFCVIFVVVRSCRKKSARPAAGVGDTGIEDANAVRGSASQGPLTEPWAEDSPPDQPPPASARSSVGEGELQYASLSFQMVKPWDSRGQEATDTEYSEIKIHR

B1: mAbA (antibody, human IgG1, V domains shown)
VH: QVQLQQPGAELVKPGSPVKLSCKASYFTFTSYWMHWVRQRPGQGLEWIGEINPSNGHTNYNEKFESKATLTVDRSSSTAYMQLSSLTSEDSAVFYCANGVESYDFDDALDYWGQGTSVTVSS
VL: DIQMTQTTSSLSASLGDRVTISCRASQDINNYLNWYQQKPDGTIKLLIYYTSRLHSGVPSRFSGSGSGTDYSLTINNLEQEDIATYFCQQGNTLPFTFGGGTKLEIK
Regarding B1, the binding result is recorded as “binds” with Human Siglec-9 mutant M8; “binds” with Human Siglec-9 mutant M6; “binds” in assay [1]; “binds” in the assay with Human Siglec-9 mutant M2; “binds” with Human Siglec-9 mutant M7; “no binding” with Human Siglec-6. Besides, the binding result with Human Siglec-8, in the assay with Human Siglec-3, in the assay with Human Siglec-5, in the assay with Human Siglec-10, in the assay with Human Siglec-11 and in the assay with Human Siglec-12 was “no binding” throughout.

B2: mAbB (antibody, human IgG1, V domains shown)
VH: QVQLQQPGAELVKPGASVKLSCKASVYTFTSYWMHWVKQRPGQGLEWIGEINPSNGHTNYNEKFKTKAKLTVDKSSSTAYMQLSSLTSEDSAVYFCANGVETYDFDDAMDYWGQGTSVTVSS
VL: B1 VL with I44V, Y50F, N76S, N92D, L94F
With B2, the binding result is “binds” in the assay with Human Siglec-9 mutant M8; “binds” with Human Siglec-9 mutant M6; “binds” in [1]; “binds” in the assay with Human Siglec-9 mutant M2; “binds” with Human Siglec-9 mutant M7; “no binding” in the assay with Human Siglec-6. Besides, the binding result in the assay with Human Siglec-8, in the assay with Human Siglec-3, in the assay with Human Siglec-5, in the assay with Human Siglec-10, in the assay with Human Siglec-11 and with Human Siglec-12 was “no binding” in each case.

B3: mAb4 (antibody, human IgG1, V domains shown)
VH: DVQLVESGGDLVKPGGSLKLSCAASGFAFSSYDMSWVRQSPEKRLEWIAHIGSGGGNIYYPDTVKGRFTISRDNAKNTLYLQMRSLKSEDTAMYYCARLIFTTGFYGMDYWGQGTSVTVSS
VL: B1 VL with N30S, N31S, N76S, E79D, E81D, T93A, F96W
With B3, the binding result in the assay with Human Siglec-6, with Human Siglec-8, in the assay with Human Siglec-3, with Human Siglec-5, in the assay with Human Siglec-10 and with Human Siglec-11 was “no binding” throughout. Further, the binding result with Human Siglec-12 is on record as “no binding”.

B4: mAb5 (antibody, human IgG1, V domains shown)
VH: EIQLQQSGPELEKPGASVKISCKASGYSFSDYNMNWVKQSNGKSLEWIGNIDPYYGATSYNQRFKGKATLTVDKSSSTAYMQLKSLTSEDSAVYYCARGDSLFAYWGHGTLVTVSA
VL: DIVMTQSQEFMSTSLGDRVSVTCKASQNVGTNVAWYQQKPGQSPKALLYSASSRYSGVPDRFTGSGSGTDFTLTISNVQSEDLAEYFCQQYITYPYTFGGGTKLEIK
As for B4, the binding result with Human Siglec-6, in the assay with Human Siglec-8, with Human Siglec-3, in the assay with Human Siglec-5, with Human Siglec-10 and with Human Siglec-11 was “no binding” each time. Besides, the binding result with Human Siglec-12 is “no binding”.

B5: mAb6 (antibody, human IgG1, V domains shown)
VH: B4 VH with H108Q
VL: B4 VL with S76N, V78M
Turning to B5, the binding result in the assay with Human Siglec-6, in the assay with Human Siglec-8, with Human Siglec-3, in the assay with Human Siglec-5, with Human Siglec-10 and with Human Siglec-11 was “no binding” throughout. Besides, the binding result in the assay with Human Siglec-12 was “no binding”.

B6: mAbC (antibody, human IgG1, V domains shown)
VH: QIQLVQSGPELKKPGETVKISCKASGYTFTNYEMNWVKEAPGKGLKWMGWINTYTGESTYADDFKGRFAFSLETSASTVYLQINNLKDEDVATYFCVRDDYGRSYGFAYWGQGTLVTVSA
VL: NIVLTQSPASLTVSLGQRANISCRASESVDSYGNSFMHWYQQKPGQPPKLLIYLASKLESGVPARFSGSGSRTDFTLTIDPVETDDAATYYCHQNNEDPPWTFGGGTKLEIK
Turning to B6, the binding result in assay [2] was “binds”; in the assay with Human Siglec-9 mutant M6, “binds”; in [1], “binds”; in the assay with Human Siglec-9 mutant M2, “binds”; in the assay with Human Siglec-9 mutant M7, “binds”; with Human Siglec-6, “no binding”. Further, the binding result with Human Siglec-8, in the assay with Human Siglec-3, with Human Siglec-5, with Human Siglec-10, with Human Siglec-11 and with Human Siglec-12 was “no binding” throughout.
